Three molecules from article PMC11147762 can be followed below.

In series [1] the target is T1, DDX41-ΔHel-WT (DDX41 D3) (Homo sapiens, UniProt Q9UJV9 1-406+568-622, internal_change). The series is described as follows: EMSA; EMSA, 0-1300 nM protein with 10 nM nucleic acid; buffer, salt, pH and temperature not in material. The note with it: protein: recombinant, label: 5'-Cy5 on oligo1.
Another series addresses DDX41-R525H (Homo sapiens, UniProt Q9UJV9 1-622, R525H). The description is as above. The note with it: protein: recombinant; label: 5'-Cy5 on oligo1; 5'-Cy3 on RNA; bubble of oligo1/oligo2 with 25-nt RNA paired to oligo2.
Another series addresses DDX41-ΔHel-Y259C (Homo sapiens, UniProt Q9UJV9 1-406+568-622, Y259C;internal_change). The description is as above. The note with it: protein: recombinant; label: 5'-Cy5 on oligo1; 5'-Cy3 on RNA; bubble of oligo1/oligo2 with 25-nt RNA paired to oligo2.
In series [2] the target is T1, DDX41-ΔHel-WT (DDX41 D3). As to the kind of experiment: EMSA; m6A had no effect on affinity; EMSA, 0-1300 nM protein with 10 nM nucleic acid; buffer, salt, pH and temperature not in material. The note with it: protein: recombinant; label: 5'-Cy5 on oligo1; 5'-Cy3 on RNA; bubble of oligo1/oligo2 with 25-nt RNA paired to oligo2. On the technique in general: Mobility shift assays separate free from complexed probe on a gel.

T1 sequence (Q9UJV9 other isoform, or with tags, fused parts or gaps | mutant): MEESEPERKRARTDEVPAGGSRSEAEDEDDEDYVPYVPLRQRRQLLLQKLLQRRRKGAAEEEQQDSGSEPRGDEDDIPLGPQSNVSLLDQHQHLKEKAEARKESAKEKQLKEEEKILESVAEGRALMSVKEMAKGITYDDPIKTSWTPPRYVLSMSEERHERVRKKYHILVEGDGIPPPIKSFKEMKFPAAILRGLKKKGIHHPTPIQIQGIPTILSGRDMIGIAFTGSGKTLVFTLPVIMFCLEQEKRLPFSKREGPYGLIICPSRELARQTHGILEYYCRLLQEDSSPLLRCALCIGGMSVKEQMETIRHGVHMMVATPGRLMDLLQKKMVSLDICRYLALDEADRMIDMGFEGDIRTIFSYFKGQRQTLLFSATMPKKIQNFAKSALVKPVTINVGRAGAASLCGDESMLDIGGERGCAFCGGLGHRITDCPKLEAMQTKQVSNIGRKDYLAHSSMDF
DDX41-ΔHel-Y259C, sequence (Q9UJV9 other isoform, or with tags, fused parts or gaps Y259C/| Y259C Y259C): as the sequence (Q9UJV9 other isoform, or with tags, fused parts or gaps | mutant) above, with Y259C counted along it
DDX41-R525H, sequence (Q9UJV9 whole entry R525H): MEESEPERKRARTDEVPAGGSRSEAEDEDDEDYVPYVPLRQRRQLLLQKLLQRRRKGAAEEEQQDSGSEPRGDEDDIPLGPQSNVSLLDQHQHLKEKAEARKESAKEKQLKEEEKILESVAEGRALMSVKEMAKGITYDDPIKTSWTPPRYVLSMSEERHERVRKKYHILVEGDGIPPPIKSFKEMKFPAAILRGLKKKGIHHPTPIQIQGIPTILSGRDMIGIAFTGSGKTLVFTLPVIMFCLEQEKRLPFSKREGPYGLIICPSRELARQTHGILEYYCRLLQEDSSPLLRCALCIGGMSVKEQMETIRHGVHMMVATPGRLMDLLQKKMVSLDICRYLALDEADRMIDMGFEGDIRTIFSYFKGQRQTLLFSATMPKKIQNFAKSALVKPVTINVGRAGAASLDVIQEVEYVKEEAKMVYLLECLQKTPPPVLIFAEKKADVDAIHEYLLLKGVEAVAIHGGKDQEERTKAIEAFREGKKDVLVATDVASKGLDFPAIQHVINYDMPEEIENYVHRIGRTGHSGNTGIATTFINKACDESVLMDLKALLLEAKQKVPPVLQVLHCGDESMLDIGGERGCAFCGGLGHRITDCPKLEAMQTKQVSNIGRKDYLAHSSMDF

B1: R-loop (mixed)
DNA 1: GCCAGGGACGAGGTGAACCTGCAGGTGGGCGGCTACTACTTAGATGTCATCCGAGGCTTATTGGTAGAATTCGGCAGCGTCATGCGACGGC
DNA 2: GCCGTCGCATGACGCTGCCGAATTCTACCACGCGATTCATACCTGTCGTGCCAGCTGCTTTGCCCACCTGCAGGTTCACCTCGTCCCTGGC
RNA: GCAGCUGGCACGACAGGUAUGAAUC
For B1, the binding result was “binds” with DDX41-ΔHel-WT (DDX41 D3) [1] (5'-Cy3 on RNA, bubble of oligo1/oligo2 with 25-nt RNA paired to oligo2); “binds” in the series with DDX41-R525H; “binds” in the series with DDX41-ΔHel-Y259C.

B2: D-loop (structured_DNA)
DNA 1: GCCAGGGACGAGGTGAACCTGCAGGTGGGCGGCTACTACTTAGATGTCATCCGAGGCTTATTGGTAGAATTCGGCAGCGTCATGCGACGGC
DNA 2: GCCGTCGCATGACGCTGCCGAATTCTACCACGCGATTCATACCTGTCGTGCCAGCTGCTTTGCCCACCTGCAGGTTCACCTCGTCCCTGGC
DNA 3: GCAGCTGGCACGACAGGTATGAATC
In the case of B2, the binding result with DDX41-ΔHel-WT (DDX41 D3) [1] (bubble with 25-nt DNA paired to oligo2) was “binds”.

B3: m6A R-loop (mixed)
DNA 1: GCCAGGGACGAGGTGAACCTGCAGGTGGGCGGCTACTACTTAGATGTCATCCGAGGCTTATTGGTAGAATTCGGCAGCGTCATGCGACGGC
DNA 2: GCCGTCGCATGACGCTGCCGAATTCTACCACGCGATTCATACCTGTCGTGCCAGCTGCTTTGCCCACCTGCAGGTTCACCTCGTCCCTGGC
RNA: GCAGCUGGCACGACAGGUAUGAAUC
modifications: m6A in RNA strand; positions not visible in material
As for B3, in the series with DDX41-ΔHel-WT (DDX41 D3) [2], the binding result is listed as “binds”.
